The values below come from publication PMC9606946, “Programmed Aptamer Screening, Characterization, and Rapid Detection for α-Conotoxin MI”.

Broadly, the Kd is a measure of binding affinity in units of concentration.

Where “and” joins values, the source holds several entries; their conditions need not be identical. Identical values can stand only once. Where no end group is shown, it is not given here.

T1: alpha-conotoxin MI (CTX-MI) (Conus magus, UniProt P01521 1-14, disulfide (positions not given here); not fully specified; also: two disulfides as in P01521)
T1 chain: GRCCHPACGKNYSC-NH2

B1: MBMI-39 (ssDNA)
DNA: ATTGGCACTCCACGCATAGGGTAGGGGATTTAAGGAGGGGCCTTAGGAGGGGGGGGGTAACCTATGCGTGCTACCGTGAA
B2: MBMI-08 (ssDNA)
DNA: ATTGGCACTCCACGCATAGGCAACGGGGGGGTGGGGAGAGAAGGGTTGAGTGACAATTTGCCTATGCGTGCTACCGTGAA
B3: MBMI-02 (ssDNA)
DNA: ATTGGCACTCCACGCATAGGATTTGGGTTTCGGGATAAGGGGCAAAAGGACAGGTTTTGTCCTATGCGTGCTACCGTGAA
B4: MBMI-03 (ssDNA)
DNA: ATTGGCACTCCACGCATAGGGGCGCTTGTGGTGTAAGGGTTGGGTATATGTCGTAATAGGCCTATGCGTGCTACCGTGAA
B5: MBMI-92 (ssDNA)
DNA: ATTGGCACTCCACGCATAGGCTCGCGGAGGGAGGGGTTTTGGGGGGCGGGATGGTATTGGCCTATGCGTGCTACCGTGAA
B6: MBMI-01 (ssDNA)
DNA: ATTGGCACTCCACGCATAGGTTTGGGGATGGGCAACGGTAAAAAGGGTCAAAAGGCTTTTCCTATGCGTGCTACCGTGAA
B7: MBMI-22 (ssDNA)
DNA: ATTGGCACTCCACGCATAGGCAAGAAGGGGGAGGGTGGTATGTGTCGGGGGGAGGGGTGGCCTATGCGTGCTACCGTGAA
B8: MBMI-94 (ssDNA)
DNA: ATTGGCACTCCACGCATAGGAGCGGGGTTGGTTTGCGGGAGGGGGGGTGGAGGTAAGCTCCCTATGCGTGCTACCGTGAA
B9: MBMI-51 (ssDNA)
DNA: ATTGGCACTCCACGCATAGGAAGGTGGAATCGGAGGGGGTGCTTGGGTGGGGGTGGGATTCCTATGCGTGCTACCGTGAA

The target in one series is T1, alpha-conotoxin MI (CTX-MI). The series is described as follows: BLI. As to conditions: protein: commercial; tags: none; label: biotin.
The molecule B1 came in with a Kd of 430 nM. Still for that read-out and setting: the same measure for B2: 12000 nM; for B3: 2210 nM.

Take CTCGCGGAGGGAGGGGTTTTGGGGGGCGGGATGGTATTGG (ssDNA) [MBMI-92c]: the affinity, expressed as Kd, was 1320 nM. Still for that read-out and setting: the same measure for ATTTGGGTTTCGGGATAAGGGGCAAAAGGACAGGTTTTGT (ssDNA) [MBMI-02c]: 1290 nM; for B4: 3490 nM; for B5: 260 nM.

As for B6, the affinity, expressed as Kd, was 850 nM. Same read-out and setting: the same measure for B7: 21200 nM; for B8: 2330 nM; for B9: 14000 nM.

Still in this series, the particulars now being: protein: commercial; tags: none; label: biotin; antiparallel G-quadruplex.
In the case of TTTGGGGATGGGCAACGGTAAAAAGGGTCAAAAGGCTTTT (structured_DNA) [MBMI-01c], the Kd is 870 nM and 729 nM.

The same series, now with this note: protein: commercial; tags: none; label: biotin; remaining predicted GQ core A.
For TTTGGCCATGGCCAACGGTAAAAAGGCTCAAAACCCTTTT (ssDNA) [M2], the equilibrium dissociation constant (Kd) is 741 nM.

The series is the same for the next values; noted with them: protein: commercial; tags: none; label: biotin; remaining predicted GQ cores A,B.
As for TTTGGGGATGGGCAACGGTAAAAAGGGTCAAAACCCTTTT (ssDNA) [M3], the Kd was 1560 nM.

Staying with this series, now noted: protein: commercial; tags: none; label: biotin; remaining predicted GQ cores C,D.
With TTTCCGGATGGGCAACGGTAAAAAGGGTCAAAAGGCTTTT (ssDNA) [M1], the dissociation constant Kd was 1520 nM.
